Results as given in patent US20120058906A1 (published 2012).

T1: rHuman Erythropoietin R/Fc Chimera, CF (R&D Systems Cat#963-ER) (human, UniProt P19235 25-250)
T1 construct: Purchased Fc chimera; also called EPO R/Fc; Epo R; not shown: Fc portion of the purchased chimera
T1 sequence: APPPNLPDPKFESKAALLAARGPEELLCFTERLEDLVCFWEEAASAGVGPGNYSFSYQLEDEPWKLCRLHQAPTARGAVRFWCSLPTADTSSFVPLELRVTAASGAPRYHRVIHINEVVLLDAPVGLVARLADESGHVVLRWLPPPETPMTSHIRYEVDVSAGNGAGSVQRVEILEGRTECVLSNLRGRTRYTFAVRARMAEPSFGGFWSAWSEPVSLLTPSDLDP


Experiments:
[1] = molecular target: T2, rHuman HGF R/c-MET/Fc Chimera, CF (R&D Systems Cat#358-MT/CF) (human, UniProt P08581 25-932); assay: MSD ECL titration, Fab 9.3 nM, blank 287
T2 construct: Bought Fc chimera; also called HGF R/Fc; Fc part of the bought chimera not given

[2] = molecular target: T3, rHuman ErbB2/Fc Chimera, CF (R&D Systems Cat#1129-ER) (human, UniProt P04626 23-652); assay: MSD ECL titration, Fab 9.3 nM, blank 287
T3 construct: Bought Fc chimera; also called HER2/neu; Fc part of the bought chimera not given

[3] = molecular target: T4, rHuman EGF R/Fc Chimera, CF (R&D Systems Cat#344-ER) (human, UniProt P00533 25-645); assay: MSD ECL titration, Fab 9.3 nM, blank 287
T4 construct: Bought Fc chimera; Fc part of the bought chimera not given

[4] = molecular target: T5, rHuman EGF R/Fc Chimera, CF (R&D Systems Cat#344-ER) (human, UniProt P00533 25-645); assay: MSD ECL multi-spot plate, antigen immobilized; Fab 8 nM; blank spot 479
T5 construct: Purchased Fc chimera; not shown: Fc portion of the purchased chimera

[5] = molecular target: T6, rHuman P-Cadherin/Fc Chimera, CF (R&D Systems Cat#861-PC) (human, UniProt P22223 108-654); assay: as above
T6 construct: Purchased Fc chimera; not shown: Fc portion of the purchased chimera

[6] = molecular target: T7, rHuman IGF-1 sR (IGF-1 sR), CF (R&D Systems Cat#391-GR) (human, UniProt P08069 31-932); assay: as above
T7 construct: Purchased soluble receptor; also called insulin-like growth factor-1 soluble receptor; IGF-R1

[7] = molecular target: T8, rHuman CD44/Fc Chimera, CF (R&D Systems Cat#3660-CD) (human, UniProt P16070 21-220); assay: as above
T8 construct: Purchased Fc chimera; not shown: Fc portion of the purchased chimera

[8] = molecular target: T9, Recombinant Human DLL4 (R&D Systems Cat#1506-D4/CF) (human, UniProt Q9NR61 27-524); assay: as above
T9 construct: Purchased recombinant protein; also called delta-like protein 4

[9] = molecular target: T1, rHuman Erythropoietin R/Fc Chimera, CF …; assay: as above
[10] = molecular target: T10, rHuman Notch-1/Fc Chimera, CF (R&D Systems Cat#3647-TK) (human, UniProt P46531 19-526); assay: as above
T10 construct: Purchased Fc chimera; not shown: Fc portion of the purchased chimera

[11] = molecular target: T11, rHuman ErbB2/Fc Chimera, CF (R&D Systems Cat#1129-ER) (human, UniProt P04626 23-652); assay: as above
T11 construct: Purchased Fc chimera; also called HER2/neu; not shown: Fc portion of the purchased chimera

[12] = molecular target: T12, rHuman HGF R/c-MET/Fc Chimera, CF (R&D Systems Cat#358-MT/CF) (human, UniProt P08581 25-932); assay: as above
T12 construct: Purchased Fc chimera; also called HGF R/Fc; not shown: Fc portion of the purchased chimera

[13] = molecular target: T5, rHuman EGF R/Fc Chimera, CF (R&D …); assay: MSD ECL multi-spot plate, antigen immobilized; Fab 40 nM; blank spot 502
[14] = molecular target: T6, rHuman P-Cadherin/Fc Chimera, CF (R&D …); assay: as above
[15] = molecular target: T7, rHuman IGF-1 sR (IGF-1 sR), CF (R&D …); assay: as above
[16] = molecular target: T8, rHuman CD44/Fc Chimera, CF (R&D Systems …); assay: as above
[17] = molecular target: T9, Recombinant Human DLL4 (R&D Systems …); assay: as above
[18] = molecular target: T10, rHuman Notch-1/Fc Chimera, CF (R&D …); assay: as above
[19] = molecular target: T11, rHuman ErbB2/Fc Chimera, CF (R&D …); assay: as above
[20] = molecular target: T12, rHuman HGF R/c-MET/Fc Chimera, CF (R&D …); assay: as above
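Note: blank spot per well as comparator with Hit at signal to blank ratio of 4 or more.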

ECL signal [1] | ECL signal [2] | ECL signal [3] | ECL signal [4] [ECL signal] | ECL signal [5] [ECL signal] | ECL signal [6] [ECL signal] | ECL signal [7] [ECL signal] | ECL signal [8] [ECL signal] | ECL signal [9] [ECL signal] | ECL signal [10] [ECL signal] | ECL signal [11] [ECL signal] | ECL signal [12] [ECL signal] | ECL signal [13] [ECL signal] | ECL signal [14] [ECL signal] | ECL signal [15] [ECL signal] | ECL signal [16] [ECL signal] | ECL signal [17] [ECL signal] | ECL signal [18] [ECL signal] | ECL signal [19] [ECL signal] | ECL signal [20] [ECL signal] | Binder
324 | 354 | 424 | – | – | – | – | – | – | – | – | – | – | – | – | – | – | – | – | – | Fab VH1-46_IGHD6-6*01_IGHJ1*01 & L6_IGKJ1*01 (Fab, V domains shown, Expressed in E. coli as Fab: heavy chain with CH1 plus Flag and His tags from Plasmid A, kappa light chain constant region from Plasmid C; also called Fab No. 1) VH: QVQLVQSGAEVKKPGASVKVSCKASGYTFTSYYMHWVRQAPGQGLEWMGIINPSGGSTSYAQKFQGRVTMTRDTSTSTVYMELSSLRSEDTAVYYCAREEYSSSSAEYFQHWGQGTLVTVSS VL: not shown
– | – | – | 1080 | 669 | 1110 | 786 | 5470 | 911 | 916 | 1330 | 1240 | 1110 | 1020 | 1240 | 824 | 19500 | 1010 | 1420 | 1230 | Fab VH5-51_IGHD5-18*01>3_IGHJ4*01_G100R & V3-4_IGLJ1*01 (Fab, V domains shown, It was expressed as a Fab: CH1 with tags from Plasmid A and lambda CL from Plasmid E; also called Fab No. 23) VH: EVQLVQSGAEVKKPGESLKISCKGSGYSFTSYWIGWVRQMPGKGLEWMGIIYPGDSDTRYSPSFQGQVTISADKSISTAYLQWSSLKASDTAMYYCARRRYSYGYDYFDYWGQGTLVTVSS VL: QTVVTQEPSFSVSPGGTVTLTCGLSSGSVSTSYYPSWYQQTPGQAPRTLIYSTNTRSSGVPDRFSGSILGNKAALTITGAQADDESDYYCVLYMGSGISYVFGTGTKVTVL
